{"source": "the supplement of paper PMC12042874", "note": "± gives the uncertainty stated by the source."}
{"assay": "amyloid nucleation score (Sup35N fusion, yeast selection) (log enrichment); library NNK2; higher = more nucleation; inactive = no reads after selection", "in_short": "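Yeast lacking psi expressed peptides of 20 random codons fused to Sup35N, received 100 μM copper sulfate for 24 hours, and were then grown for 7 days at 30°C on medium lacking adenine and uracil. Illumina sequencing of input and output plasmid inserts provided the reads. Nucleation scores are DiMSum log enrichments of output over input, centred on the mode of non-aggregating sequences. Any sequence with under 100 input reads was excluded.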"}
{"substance": "FALNPAESLHIRYIGLALF", "amyloid nucleation score": "-1.02 ± 0.62"}
{"substance": "FAMDSIKRFFKIIIFSRYT", "amyloid nucleation score": "-1.34 ± 1.1"}
{"substance": "FAMNSVSFSAGNFTDSVPWW", "amyloid nucleation score": "-0.666 ± 0.63"}
{"substance": "FARKMIGLPLLYLLGVMFGR", "amyloid nucleation score": "-0.877 ± 0.78"}
{"substance": "FASLCTW", "amyloid nucleation score": "-0.211 ± 0.46"}
{"substance": "FAVFPLVPGRGPGLFENNRW", "amyloid nucleation score": "-0.104 ± 0.74"}
{"substance": "FAWNMLS", "amyloid nucleation score": "0.285 ± 0.74"}
{"substance": "FAYLPSTVVGVSHSTLGPLI", "amyloid nucleation score": "0.221 ± 0.43"}
{"substance": "FCAQITPHRISWLWWQINRQ", "amyloid nucleation score": "-0.304 ± 1.1"}
{"substance": "FCCFRVYVDMENLSNSALTL", "amyloid nucleation score": "7.557 ± 0.033"}
{"substance": "FCLFW", "amyloid nucleation score": "inactive"}
{"substance": "FCLGRMLARPRRTCYTDENM", "amyloid nucleation score": "-0.126 ± 0.49"}
{"substance": "FCLVY", "amyloid nucleation score": "0.744 ± 0.19"}
{"substance": "FCMFSNIYVFPSTIF", "amyloid nucleation score": "7.583 ± 0.02"}
{"substance": "FCNLN", "amyloid nucleation score": "-0.02 ± 0.28"}
{"substance": "FCRSVILSVQMLFKYAIYRF", "amyloid nucleation score": "-1.37 ± 1.1"}
{"substance": "FCRWSVTFNFRSMIGPGS", "amyloid nucleation score": "5.344 ± 0.035"}
{"substance": "FCSTTAICYKGEKQ", "amyloid nucleation score": "3.47 ± 0.14"}
{"substance": "FCTHPSFGTVMGMRAETGLD", "amyloid nucleation score": "0.516 ± 0.81"}
{"substance": "FCVAGQLLVS", "amyloid nucleation score": "0.228 ± 0.25"}
{"substance": "FCWRNCLNVIDTF", "amyloid nucleation score": "-1.22 ± 0.35"}
{"substance": "FDKRS", "amyloid nucleation score": "inactive"}
{"substance": "FDNRNVSVSYPYNKMGNRVM", "amyloid nucleation score": "2.57 ± 0.069"}
{"substance": "FDQTFEDWWPAYNHSRFNQH", "amyloid nucleation score": "0.352 ± 0.51"}
{"substance": "FDYFF", "amyloid nucleation score": "inactive"}
{"substance": "FDYKSKKGRNNDWRTVCCVM", "amyloid nucleation score": "2.21 ± 0.16"}
{"substance": "FDYVLSGICIPLKSIGVSFG", "amyloid nucleation score": "8.385 ± 0.053"}
{"substance": "FDYVMFSDIVWSYTKNDALM", "amyloid nucleation score": "-0.111 ± 0.63"}
{"substance": "FEAINMSQQCIYCFPMSRNI", "amyloid nucleation score": "7.388 ± 0.053"}
{"substance": "FEFMNDFQSYVRMFRCLVFL", "amyloid nucleation score": "-0.401 ± 0.43"}
{"substance": "FEFTTCQGDRRSCFDGWGGN", "amyloid nucleation score": "2.19 ± 0.15"}
{"substance": "FENYYGSHGDFGVYDKFNHL", "amyloid nucleation score": "inactive"}
{"substance": "FFDYLANFCLSKHGNNNYPF", "amyloid nucleation score": "-0.97 ± 1.1"}
{"substance": "FFEMFGCHMFLLMAYLTI", "amyloid nucleation score": "0.164 ± 0.63"}
{"substance": "FFFRSHKTIILVAKG", "amyloid nucleation score": "-0.104 ± 0.2"}
{"substance": "FFFVLFGFWYKTRWSMCISK", "amyloid nucleation score": "2.31 ± 0.22"}
{"substance": "FFIYGNSHVSVIRYWTCTLT", "amyloid nucleation score": "7.391 ± 0.049"}
{"substance": "FFLLPLVRYELLSNVDAVPG", "amyloid nucleation score": "0.101 ± 0.76"}
{"substance": "FFNAR", "amyloid nucleation score": "-0.951 ± 0.62"}
{"substance": "FFRLIGDGGYCCFPCKSDVR", "amyloid nucleation score": "2.54 ± 0.077"}
{"substance": "FFSFGCGSWRTVIVTSRSL", "amyloid nucleation score": "-0.299 ± 1"}
{"substance": "FFSNIFIEASVCELGSNANV", "amyloid nucleation score": "1.03 ± 0.23"}
{"substance": "FFTAMDASRSRLKCSYAVQT", "amyloid nucleation score": "3.28 ± 0.13"}
{"substance": "FFWSLGSYILHYC", "amyloid nucleation score": "inactive"}
{"substance": "FFYHLCASVRLA", "amyloid nucleation score": "-1.11 ± 0.78"}
{"substance": "FFYRVPDITSDAGITQLLAQ", "amyloid nucleation score": "5.483 ± 0.048"}
{"substance": "FGCSVNRKILVLMFVNVISV", "amyloid nucleation score": "-0.627 ± 0.39"}
{"substance": "FGFWDLMSCTSRMGTIIRLY", "amyloid nucleation score": "inactive"}
{"substance": "FGGINIGCGQCLFVVR", "amyloid nucleation score": "8.503 ± 0.053"}
{"substance": "FGIGFGFLVHYDGRFWVYFG", "amyloid nucleation score": "inactive"}
{"substance": "FGLSRL", "amyloid nucleation score": "0.713 ± 0.74"}
{"substance": "FGMFGSSYYIMY", "amyloid nucleation score": "2.63 ± 0.093"}
{"substance": "FGMNDRRH", "amyloid nucleation score": "-0.381 ± 0.79"}
{"substance": "FGNDPSGCVNQAYYHRCFLD", "amyloid nucleation score": "-0.959 ± 0.78"}
{"substance": "FGVNDLYSDLW", "amyloid nucleation score": "-0.68 ± 0.25"}
{"substance": "FHARPDSNPEENMVDSGI", "amyloid nucleation score": "inactive"}
{"substance": "FHLEPLKWSWVST", "amyloid nucleation score": "-0.837 ± 1.1"}
{"substance": "FHLMFCGSL", "amyloid nucleation score": "-0.818 ± 0.49"}
{"substance": "FIAYMYPMVIWIPMRFLINQ", "amyloid nucleation score": "inactive"}
{"substance": "FICCNNSQIRVSFWLRTWYL", "amyloid nucleation score": "3.39 ± 0.048"}
{"substance": "FIDTLNYDWDIVLFWFLGEN", "amyloid nucleation score": "0.021 ± 0.51"}
{"substance": "FIICPSSDCNIRDIRRILTC", "amyloid nucleation score": "-0.967 ± 0.28"}
{"substance": "FIICTEWPSDLLNWSSVANW", "amyloid nucleation score": "-0.658 ± 1"}
{"substance": "FIIMFIRLLSW", "amyloid nucleation score": "1.12 ± 0.14"}
{"substance": "FILSQWYKGSECTTCRRLWG", "amyloid nucleation score": "-0.318 ± 0.4"}
{"substance": "FIMMDRAGSMIYSKGTRNIR", "amyloid nucleation score": "3.05 ± 0.11"}
{"substance": "FINILKSSMLSVDWSLPIFN", "amyloid nucleation score": "inactive"}
{"substance": "FINSHFHYEECPIMGKQSVL", "amyloid nucleation score": "1.63 ± 0.53"}
{"substance": "FINVLDSNLAQLWLLFTSWR", "amyloid nucleation score": "1.51 ± 0.14"}
{"substance": "FIRYS", "amyloid nucleation score": "1.79 ± 0.084"}
{"substance": "FIRYVCHNVWDICYHLEMLL", "amyloid nucleation score": "inactive"}
{"substance": "FISMGQGRPEFLWVFVDVGD", "amyloid nucleation score": "0.092 ± 1.1"}
{"substance": "FITQVHSYWDSISTVTSDIL", "amyloid nucleation score": "inactive"}
{"substance": "FIVRSLRSSHTKTVPLPACC", "amyloid nucleation score": "inactive"}
{"substance": "FKASWVVRASNKDTHIHRGG", "amyloid nucleation score": "-0.144 ± 0.49"}
{"substance": "FKDRYRTGFSDVRNQVAHSV", "amyloid nucleation score": "inactive"}
{"substance": "FKDSDVEEWLNVKIIYWGVC", "amyloid nucleation score": "-0.604 ± 0.41"}
{"substance": "FKDTWQSPGAVERKGMRTSV", "amyloid nucleation score": "0.365 ± 0.22"}
{"substance": "FKDWNKWY", "amyloid nucleation score": "inactive"}
{"substance": "FKHVLDRN", "amyloid nucleation score": "-0.343 ± 0.45"}
{"substance": "FKIVALTTVNIVLRDSWCNP", "amyloid nucleation score": "6.199 ± 0.061"}
{"substance": "FKLFSFQVLYCSFDPCMHYT", "amyloid nucleation score": "-1.33 ± 0.62"}
{"substance": "FKQLIMGYS", "amyloid nucleation score": "3.24 ± 0.075"}
{"substance": "FKSTYVHHYRVMPGSVVLLR", "amyloid nucleation score": "-1.2 ± 1.1"}
{"substance": "FLEQFVMSLT", "amyloid nucleation score": "-0.752 ± 0.44"}
{"substance": "FLFEN", "amyloid nucleation score": "-0.607 ± 0.64"}
{"substance": "FLFETMVIFSSSEMVWRDWC", "amyloid nucleation score": "0.192 ± 1"}
